Assay results published in article PMC3367564.

How the values were obtained:
MBP-sAnk1(29-155) = MBP-sAnk1(29-155) (UniProt P16157); test: SPR
MBP-sAnk1(29-155) D111R = MBP-sAnk1(29-155) D111R (UniProt P16157); test: SPR
obscurin = obscurin (UniProt Q5VST9); conditions: cited from earlier work

| Substance | peak binding relative to wild type (MBP-sAnk1(29-155)) | ratio of binding to sAnk1-D111R over binding to wild type sAnk1 (MBP-sAnk1(29-155) D111R) | other results |
| --- | --- | --- | --- |
| GST-Obsc(6316-6436) E6329A (domain or fragment) | 40 % of control |  |  |
| GST-Obsc(6316-6436) K6337E (domain or fragment) |  | 1.7 |  |
| GST-Obsc(6316-6436) K6338E (domain or fragment) |  | 3.7 |  |
| small ankyrin 1 (from UniProt P16157) |  |  | Kd (obscurin): 0.13 µM |

Continued, in another order:

| peak binding relative to wild type (MBP-sAnk1(29-155)) | ratio of binding to sAnk1-D111R over binding to wild type sAnk1 (MBP-sAnk1(29-155) D111R) | Substance | other results |
| --- | --- | --- | --- |
| 40 % of control |  | GST-Obsc(6316-6436) E6327A (domain or fragment) |  |
|  | 1.7 | GST-Obsc(6316-6436) K6338A (domain or fragment) |  |
| 10 % of control |  | GST-Obsc(6316-6436) with the two N-terminal glutamates changed to alanines (E6327A, E6329A) (domain or fragment) |  |
|  | 1.7 | GST-Obsc(6316-6436), wild type (domain or fragment) |  |
